# From paper PMC5240623, “Methylation specific targeting of a chromatin remodeling complex from sponges to humans” (Scientific Reports, 2017)
# No end group written: not given here.
# Molecular target: T1, HsGATAD2A coiled-coil domain, uncleaved fusion peptide (human, UniProt Q86YP4 137-178)
# T1 construct: GATAD2A (p66α), human, coiled-coil domain; the purification of this construct is not described here; also called GATAD2A (p66α)
# Assay: ITC; fusion peptides left uncleaved; 50 mM Hepes pH 7.4, 150 mM NaCl, 298 K; MicroCal Auto-iTC200, 20–24 injections; HsMBD2 (1.8 mM), EmGATAD2A/B (2.74 mM), DmGATAD2A/B (2.5 mM) injected into HsGATAD2A (100 μM), EmMBD2/3 (270 μM), DmMBD2/3 (250 μM); one-site binding model
# Details: both partners purified
# T1 sequence (Q86YP4 137-178): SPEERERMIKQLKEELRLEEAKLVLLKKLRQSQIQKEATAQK
binder,measurement,value
"KAFIVTDEDIRKQEERVQQVRKKLEEALMADILS (domain or fragment, human, also: uncleaved fusion tag, MBD2, human, coiled-coil domain; the purification of this construct is not described here) [HsMBD2 coiled-coil domain, uncleaved fusion peptide]",Kd,48 nM
same,dH,-9.93 kcal/mol
same,stoichiometry N,1.3
